Laboratory results: the Human Domainome abundance scans (Beltran et al. 2025)

B1: Protein piccolo, residues 1058 to 1114; numbered along this chain, Q9Y6V0 (parent)
chain: TCPLCKTELNIGSKDPPNFNTCTECKNQVCNLCGFNPTPHLTEIQEWLCLNCQTQRA

Variants of: B1
Assay: abundance fitness (aPCA) (normalised: wild type 0, dead -1); higher = more abundant; growth selection in yeast, the domain comes from the species named
Conditions: Homo sapiens

Abundance fitness, by site and new letter:
P16: C -0.045; Y -0.056; S -0.057; G -0.354; V -0.483
N20: W -0.188; M 0.188; E -0.012; F -0.051
L4: R -0.054; Y -0.088; D 0.17; I -0.048; F -0.376
P37: T 0.079; A -0.02; Y -0.451; E 0.138; M -0.098
K26: I 0.006; T 0.195; E 0.045; Q 0.04; G 0.139
C52: S -0.709; P -1.2; D -0.755; F -1.06
C30: N -0.612; D -0.499; T -0.597; I -0.887; M -0.734
Q53: K 0.115; Y -0.23; V -0.256; N 0.118; I -0.25; E -0.074
N31: V 0.045; W -0.19; Q 0.014; L 0.072; D 0.003
E24: F -0.269; R -0.01; L -0.363
F35: D 0.218; K 0.255; Q 0.25; R 0.21
D15: E -0.248; W -0.328; F 0.003; N 0.02; A -0.138; Y 0.124
N27: G 0.138; S 0.12; L 0.157; V 0.163; Q 0.112; K -0.03
P39: I -0.013; Y -0.131; W -0.303; F 0.025; R 0.008; V 0.092
L41: V 0.044; H -0.247; K 0.176; E -0.015; N 0.128; R 0.2; A 0.117; W -0.133
H40: Y -0.13; K -0.06; R 0.093; M 0.004; S 0.156; F -0.105; E -0.065
L50: T 0.208; G 0.084; M -0.565; D 0.208; F -0.25
N36: D -0.093; T -0.28; I -0.129; V 0.068; K 0.08; C -0.054
I44: P 0.126; N -0.144; Y -0.274; R -0.138; S 0.045; M -0.214; W -0.312; H -0.166
T54: P 0.156; K 0.196; V -0.198; A 0.049; G 0.046; Y -0.369; I -0.37; H -0.076
N51: K -0.063; I -0.566; D -0.166; G -0.091; P -0.284; S -0.247; H -0.146; F -0.306
C22: M -0.74; P -0.938; H -0.567; S -0.611; W -1.03; Y -0.899; D -0.817
K14: V 0.039; W -0.525; A -0.079; G 0.021; E -0.226; S -0.126; F -0.36; I -0.653; N -0.016
E46: A -0.176; F -0.363; D -0.415; Y -0.349; K -0.079; G -0.042
F19: A -0.114; Y 0.032; H -0.022; E -0.153; M 0.181
E8: I -0.153; H -0.479; M -0.011; L -0.252; N -0.488; P -0.09
E43: L -0.398; I -0.301; R 0.11
K6: T -0.107; Q -0.02; E -0.069; C -0.329; A -0.097; R -0.283; D -0.298; S 0.059; P 0.104; V -0.215
Q45: D -0.254; G 0.037; T -0.202; K 0.268; F -0.127; H -0.357
C25: R -0.79; H -0.529; Q -0.644; V -0.636; P -0.577; T -0.606; W -0.879
N18: E -0.104; D 0.008; T -0.089; Y -0.094; R -0.079; H -0.1; G -0.098
C33: N -0.641; S -0.646; F -0.92; Y -1.26; K -0.822; H 0.076; I -0.933; D -0.336; T -0.952; A -0.588
C49: N -0.618; V -0.849; Y -0.958; H -0.761; G -0.934; W -0.884
T23: R -0.016; N -0.342; K -0.031; F 0.288; S 0.003; Q -0.36; M 0.062; P -0.126; A 0.097
T21: V 0.091; W 0.106; Y 0.135; A 0.004
L48: M -0.312; S -0.063; Q -0.274; W -0.061; E -0.131; V -0.165; D -0.297; P -0.318
T1: L -0.078; E -0.142; K -0.424
P3: K -0.248; F -0.216; A -0.245; C 0.148; S -0.078; W -0.984; G -0.137; R -0.175; Q -0.506; T -0.016
I11: N 0.037; Y 0.086; R -0.112; Q 0.065
S13: E -0.257; Q 0.135; T -0.048; P -0.062; F -0.148
W47: S -0.03; E 0.031; P -0.039; I -0.049; T -0.195; C -0.134; H -0.135; K -0.111
G34: D -0.075; K -0.794; I -0.885
T42: W -0.166; P -0.137; L -0.091; Y -0.301; N 0.097; M -0.253; A 0.055; D -0.015; H 0.123
Q28: Y -0.179; H -0.206; A 0.09; K -0.265; R 0.004; E -0.164; V -0.033; M 0.186
C5: M -0.927; D -0.606; H -0.142; Y -0.947; T -0.872; A -0.844; K -0.63; I -1.06; F -1.11
N10: K 0.2; H -0.608; W -0.676; F -0.103; D -0.245; T 0.062; Q -0.005; V -0.211
L9: G -0.047; P -0.197; R -0.156; Q -0.128; M 0.145
C2: Y -1.15; T -0.705; H -0.834; G -0.877; R -0.991; P -1.1; V -1.11; S -0.687; A -1.3
V29: T -0.118; G -0.198; L -0.284; A -0.064; E -0.178; I -0.241
T7: M -0.301; L -0.15; C -0.56; R -0.056; W -0.797; Q 0.019; G -0.011; F -0.342
L32: K 0.172; A 0.124; T -0.017; W 0.015; P -0.134; I -0.097
P17: L -0.084; G -0.097; N -0.189; I -0.448; V -0.428; A -0.176
G12: D 0.357; H -0.182; T 0.035; I 0.154; Q -0.3
